In patent US20210015937A1 (CRESCENDO BIOLOGICS, published 2021):
Several values for one entry are separate records, joined by “and”; a condition that tells them apart may be missing. Equal values may be shown once. Blank lines part the entries; values can stand above or below the binder they belong to.

Legend:
CD4 [1] = target: T1, CD4 (UniProt P01730 26-390); experiment: BLI (Octet)
T1 construct: also called CD4 (R&D Biotechne 514-CD)

CD28 = CD28 (Homo sapiens (Human), UniProt P10747 19-152); experiment: BLI (Octet)
CTLA4 = CTLA4 (Homo sapiens (Human), UniProt P16410 36-161); experiment: BLI (Octet)
Sequence of CTLA4 (P16410 36-161 limits assumed): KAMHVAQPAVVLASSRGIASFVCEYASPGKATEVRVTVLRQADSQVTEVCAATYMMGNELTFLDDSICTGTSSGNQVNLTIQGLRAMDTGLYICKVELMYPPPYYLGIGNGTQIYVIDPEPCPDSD

[2] = target: T2, human PD-1 expressed on cells (human, UniProt Q15116 25-288); experiment: cell-based or functional assay
T2 sequence (Q15116 25-288 limits assumed): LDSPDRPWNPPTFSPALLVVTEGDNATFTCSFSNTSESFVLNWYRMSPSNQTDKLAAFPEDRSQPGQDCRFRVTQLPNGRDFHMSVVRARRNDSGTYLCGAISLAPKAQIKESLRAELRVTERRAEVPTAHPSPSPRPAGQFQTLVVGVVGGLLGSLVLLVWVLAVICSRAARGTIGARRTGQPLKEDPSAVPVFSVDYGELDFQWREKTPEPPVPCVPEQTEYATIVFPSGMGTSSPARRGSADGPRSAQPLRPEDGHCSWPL

[3] = target: human LAG-3 and human PD-1 co-expressed on the surface of cells (DiscoverX cell line) (human); experiment: cell-based or functional assay
Sequence of human LAG-3 and human PD-1 co-expressed on the surface of cells (DiscoverX cell line) (human) (Q15116 25-288): as the sequence (Q15116 25-288 limits assumed) above

[4] = target: T2, human PD-1 expressed on cells; experiment: cell-based or functional assay; remark: listed apart in the source
[5] = target: T3, human LAG-3 expressed on cells (human, UniProt P18627 23-525); experiment: cell-based or functional assay
T3 sequence: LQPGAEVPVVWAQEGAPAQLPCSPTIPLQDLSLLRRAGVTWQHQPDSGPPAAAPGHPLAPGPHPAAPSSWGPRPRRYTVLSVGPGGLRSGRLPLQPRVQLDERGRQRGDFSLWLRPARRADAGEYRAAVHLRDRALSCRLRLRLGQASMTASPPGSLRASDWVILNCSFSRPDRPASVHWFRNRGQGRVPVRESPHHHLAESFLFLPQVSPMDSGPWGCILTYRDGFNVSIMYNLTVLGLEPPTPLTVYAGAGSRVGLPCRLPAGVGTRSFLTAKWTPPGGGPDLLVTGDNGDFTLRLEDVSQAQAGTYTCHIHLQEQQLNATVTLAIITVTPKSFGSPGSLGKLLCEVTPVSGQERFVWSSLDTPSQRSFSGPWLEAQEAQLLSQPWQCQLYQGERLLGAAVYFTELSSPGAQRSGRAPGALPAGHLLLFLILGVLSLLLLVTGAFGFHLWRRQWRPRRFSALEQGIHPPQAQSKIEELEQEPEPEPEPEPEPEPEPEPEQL

[6] = target: T4, recombinant human PD-1 Fc chimera (human, UniProt Q15116 25-167); experiment: BLI (Octet); PD1 antigen captured on Protein G sensors
T4 construct: Bought Fc chimera; also called human PD-1 (R&D systems cat no. 1086-PD); PD1 antigen
T4 sequence (Q15116 25-167 limits assumed, change not shown): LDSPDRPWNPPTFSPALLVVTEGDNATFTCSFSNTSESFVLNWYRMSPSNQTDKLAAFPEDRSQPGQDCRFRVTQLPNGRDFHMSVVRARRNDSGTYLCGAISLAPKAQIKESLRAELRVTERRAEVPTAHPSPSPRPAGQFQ

Cynomolgus PD1 = Cynomolgus PD1 (cynomolgus, UniProt B0LAJ3 25-170); experiment: as above
Sequence of Cynomolgus PD1 (B0LAJ3 entry or part of it limits assumed): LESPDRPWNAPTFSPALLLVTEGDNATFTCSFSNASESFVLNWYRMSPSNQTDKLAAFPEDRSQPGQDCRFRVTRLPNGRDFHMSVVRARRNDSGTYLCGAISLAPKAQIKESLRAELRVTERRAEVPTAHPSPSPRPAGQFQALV

[7] = target: T5, recombinant human LAG-3-Fc (human, UniProt P18627 23-450); experiment: BLI (Octet); LAG3 antigen amine-coupled to ARG2 sensors
T5 construct: also called human LAG-3 (R&D Systems cat no. 2319-L3); LAG3 antigen
T5 sequence: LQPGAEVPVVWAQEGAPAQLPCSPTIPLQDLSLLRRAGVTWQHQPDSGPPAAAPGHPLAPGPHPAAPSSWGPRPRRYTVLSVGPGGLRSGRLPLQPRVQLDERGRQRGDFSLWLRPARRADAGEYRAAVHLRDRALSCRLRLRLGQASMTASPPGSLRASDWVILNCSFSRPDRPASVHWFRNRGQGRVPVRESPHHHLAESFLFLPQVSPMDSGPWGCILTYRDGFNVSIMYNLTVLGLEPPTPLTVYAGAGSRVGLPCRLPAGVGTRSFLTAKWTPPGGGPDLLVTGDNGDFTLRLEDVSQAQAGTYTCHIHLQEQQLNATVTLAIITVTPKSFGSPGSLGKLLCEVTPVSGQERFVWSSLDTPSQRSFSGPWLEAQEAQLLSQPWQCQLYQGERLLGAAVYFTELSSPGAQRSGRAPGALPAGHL

[8] = target: T6, Rhesus monkey LAG-3 (used as cynomolgus LAG-3) (Rhesus monkey (called cynomolgus in the …)); experiment: as above
T6 construct: extracellular domain

[9] = target: T4, recombinant human PD-1 Fc chimera; experiment: switchSENSE; LAG3 and PD1 both on the surface, PD1 channel (avidity)
Description: (§1) The antigens were covalently attached to the biosensor surface using amine-coupling method, each antigen was linked to a different nanolever, with red or green fluorescent tag. Binding of a bispecific construct was measured to individual antigens alone or where both antigens were present on the surface simultaneously.

[10] = target: T5, recombinant human LAG-3-Fc; experiment: switchSENSE; LAG3 and PD1 both on the surface, LAG3 channel (avidity)
Description: as §1

[11] = target: T4, recombinant human PD-1 Fc chimera; experiment: switchSENSE (Dynamic Biosensors); PD1 alone on the surface, PD1 channel
Description: as §1

[12] = target: T5, recombinant human LAG-3-Fc; experiment: switchSENSE (Dynamic Biosensors); LAG3 alone on the surface, LAG3 channel
Description: as §1

[13] = target: T5, recombinant human LAG-3-Fc; experiment: switchSENSE; LAG3 and PD1 both on the surface, LAG3 channel (avidity); LAG3 and PD1 as ligand antigens, LAG3 detection channel
Description: as §1

mouse LAG-3 = target: T7, mouse LAG-3 (mouse, UniProt Q61790 24-442); experiment: ELISA, coated antigen, anti-HIS HRP detection
T7 construct: The construct is not described; also called mouse LAG-3 (Sino Biological cat no 53069-M02H); Mouse LAG3 (R&D Biotechne cat 3328-L3)
T7 sequence (looked up): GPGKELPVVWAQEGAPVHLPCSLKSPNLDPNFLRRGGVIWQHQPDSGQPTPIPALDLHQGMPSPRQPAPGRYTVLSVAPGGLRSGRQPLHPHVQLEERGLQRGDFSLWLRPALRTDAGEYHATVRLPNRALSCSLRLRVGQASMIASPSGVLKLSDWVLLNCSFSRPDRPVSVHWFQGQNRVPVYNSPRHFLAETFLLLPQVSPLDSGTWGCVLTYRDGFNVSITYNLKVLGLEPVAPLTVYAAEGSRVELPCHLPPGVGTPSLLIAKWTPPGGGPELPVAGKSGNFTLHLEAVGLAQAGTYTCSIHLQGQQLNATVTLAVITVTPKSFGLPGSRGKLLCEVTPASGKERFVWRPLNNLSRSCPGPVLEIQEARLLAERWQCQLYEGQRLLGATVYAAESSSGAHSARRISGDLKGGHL
Description: (§2) To screen specificity by ELISA, antigens were coated at 1-5 ug/ml and blocked with Marvel milk powder. VH were added at 10 μg/ml and incubated for 1 hour. After washing, HRP-conjugated anti-HIS antibody (Miltenyi cat no. 130-092-785) was added. TMB substrate and acidic solution were used to develop colorimetric signal.

CD4 [14] = target: T1, CD4; experiment: ELISA, coated antigen, anti-HIS HRP detection
Description: as §2

[15] = target: T5, recombinant human LAG-3-Fc; experiment: ELISA, coated antigen, VH at 10 µg/ml, anti-HIS HRP
Description: as §2

[16] = target: T8, human LAG-3 domains 1-2-Fc (human, UniProt P18627 23-261, limits assumed); experiment: as above
T8 construct: Domains were identified as per Huard et al 1997 PNAS 94:5744-9; also called truncated LAG-3
T8 sequence: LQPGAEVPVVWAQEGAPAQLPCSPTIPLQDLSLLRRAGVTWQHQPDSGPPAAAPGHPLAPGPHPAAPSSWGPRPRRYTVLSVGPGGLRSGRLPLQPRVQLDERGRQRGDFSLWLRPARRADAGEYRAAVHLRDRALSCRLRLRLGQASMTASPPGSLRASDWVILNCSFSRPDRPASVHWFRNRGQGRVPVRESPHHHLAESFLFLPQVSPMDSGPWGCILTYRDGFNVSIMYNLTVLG
Description: as §2

[17] = target: T6, Rhesus monkey LAG-3 (used as cynomolgus …); experiment: as above
Description: as §2

[18] = target: T3, human LAG-3 expressed on cells; experiment: FMAT (Mirrorball) binding to CHO human LAG-3 cells, anti-His detection
Excerpt: Plates were read in the FL2 (502 nm-537 nm) and FL5 (677-800 nm) channels on the TTP Mirrorball plate reader following excitation at 488 nm and 640 nm. Data was gated on FL5 perimeter and peak intensity and the FL2 median mean fluorescence intensity of the gated data used for determination of VH binding.

[19] = target: T6, Rhesus monkey LAG-3 (used as cynomolgus …); experiment: BLI (Octet); cynomolgus LAG-3 immobilised on ARG2 sensors, 1:1 fit
Description: (§3) Binding kinetics for multi-valent and bispecific VH were also measured in real-time bio-layer interferometer based biosensor Octet (ForteBio). […] All the binding studies were performed in HBS-ET Octet kinetics buffer. Biosensors were washed in Octet kinetics buffer in between different steps. […] The contact time for each of the association steps was 150 seconds and the dissociation step was 400 seconds. […] To compare the constructs, kinetic association (kₐ) and dissociation (kd) rate constants were determined by processing and fitting the data to a 1:1 binding model using ForteBio Analysis software.

[20] = target: T5, recombinant human LAG-3-Fc; experiment: BLI (Octet); human LAG-3-Fc captured on protein G biosensors, 1:1 fit
Description: as §3

[21] = target: T5, recombinant human LAG-3-Fc; experiment: competition ELISA; LAG-3-Fc pre-incubated with VH, binding to coated LSECtin
Excerpt: (§4) The plate was blocked with 3% Marvel skimmed milk powder in PBS. […] Wash steps were done 3 times with PBS 0.05% Tween. Colour was developed using TMB and 0.5M sulphuric acid solution.

[22] = target: T5, recombinant human LAG-3-Fc; experiment: BLI (Octet); human LAG-3-Fc amine-coupled to biosensor, VH in solution, 1:1 fit
Description: Binding kinetics were measured in real-time bio-layer interferometer based biosensor Octet (ForteBio). […] All the binding studies were performed in HBS-ET Octet kinetics buffer. Biosensors were washed in Octet kinetics buffer in between different steps. A seven point, two-fold dilution series of each Humabody® VH was made with a top concentration of 1.6 μM. The contact time for each of the association steps was 150 seconds and the dissociation step was 300-400 seconds. Kinetic association (kₐ) and dissociation (kd) rate constants were determined by processing and fitting the data to a 1:1 binding model using ForteBio Analysis software.

[23] = target: T8, human LAG-3 domains 1-2-Fc; experiment: BLI (Octet); human LAG-3 domains 1-2-Fc captured on protein G biosensors, 1:1 fit
Description: as §3

[24] = target: T5, recombinant human LAG-3-Fc; experiment: competition ELISA; LAG-3-Fc pre-incubated with VH, binding to coated alpha-synuclein
Excerpt: as §4

- binding result (CD4 [1]): no binding
- binding result (CD28): no binding
- binding result (CTLA4): no binding
- potency in the PD-1:PD-L1 NFAT-luciferase reporter assay, fold lower than monoclonal antibodies [2]: > 30 fold
- EC50 (M) (n = 2), enzyme fragment complementation on LAG-3/PD-1 cells [3]: 5.5e-11 M and 7.6e-11 M
- EC50 (M), NFAT-Luciferase Reporter Gene assay (PD-1:PD-L1) [4]: 4.6e-08 M
- EC50 (M), NFAT-Luciferase Reporter Gene assay (LAG-3:MHCII) [5]: 5.9e-09 M
- Kd [6]: 2.94 nM
- koff [6]: 0.000665 s⁻¹
- kon [6]: 226000 M⁻¹ s⁻¹
- Kd (Cynomolgus PD1): 4.36 nM
- koff (Cynomolgus PD1): 0.000685 s⁻¹
- kon (Cynomolgus PD1): 157000 M⁻¹ s⁻¹
- Kd [7]: 1.42 nM
- koff [7]: 0.000206 s⁻¹
- kon [7]: 145000 M⁻¹ s⁻¹
- Kd [8]: 1.32 nM
- koff [8]: 0.000184 s⁻¹
- kon [8]: 140000 M⁻¹ s⁻¹
- Kd [9]: 0.041 nM
- koff [9]: 8.67e-05 s⁻¹
- kon [9]: 2.12e+06 M⁻¹ s⁻¹
- Kd [10]: 0.0207 nM
- Kd [11]: 4.4 nM
- koff [11]: 0.000488 s⁻¹
- kon [11]: 110000 M⁻¹ s⁻¹
- Kd [12]: 1.4 nM
- koff [12]: 0.000674 s⁻¹
- kon [12]: 483000 M⁻¹ s⁻¹
- koff [13]: 7.51e-05 s⁻¹
- kon [13]: 3.62e+06 M⁻¹ s⁻¹
B1: VH1.2-6GS-VH1.2-6GS-VH2.92-His6 (bispecific antibody)
chain: EVQLVESGGGVVRPGGSLRLSCAASGFTFDDYGMSWVRQAPGKGLEWVSGIHWNGGSTGYADSVKGRFTISRDNAKNSLYLQMNSLRAEDTALYYCARIPREDCSSASCYTDAIDFWGQGTMVTVSSGGGGSGGGGSGGGGSGGGGSGGGGSGGGGSEVQLVESGGGVVRPGGSLRLSCAASGFTFDDYGMSWVRQAPGKGLEWVSGIHWNGGSTGYADSVKGRFTISRDNAKNSLYLQMNSLRAEDTALYYCARIPREDCSSASCYTDAIDFWGQGTMVTVSSGGGGSGGGGSGGGGSGGGGSGGGGSGGGGSEVQLVESGGGLVKPGGSLRLSCAASGFTFSDESMTWMRQAPGKGLEWVSYISSGGGVKFYADSVKGRFTISRDNAKNSLYLQMNSLRAEDTAVYYCAREAPLRLGESPHDAFDISGQGTMVTVSSAAAHHHHHH
notes: 259 is the same construct without the tag; also called 1.2-6GS-1.2-6GS-2.92; the bispecific

- EC50 (M), NFAT-Luciferase Reporter Gene assay (LAG-3:MHCII) [5]: > 3.3e-07 M
- binding result (mouse LAG-3): no binding (tested: 10 µg/ml VH)
- binding result (CD4 [14]): no binding (tested: 10 µg/ml VH)
- ELISA signal over background [15]: > 10 fold over background
- ELISA signal over background [16]: > 10 fold over background
- ELISA signal over background [17]: > 10 fold over background
- EC50 [18]: 1.8 nM
- Kd [19]: 25.6 nM
- koff [19]: 0.000222 s⁻¹
- kon [19]: 8650 M⁻¹ s⁻¹
- Kd [20]: 32.6 nM
- koff [20]: 0.000905 s⁻¹
- kon [20]: 27800 M⁻¹ s⁻¹
- IC50 [21]: 210 nM
- Kd [22]: 31.3 nM
- koff [22]: 0.00089 s⁻¹
- kon [22]: 26200 M⁻¹ s⁻¹
- Kd [23]: 67.5 nM
- koff [23]: 0.0011 s⁻¹
- kon [23]: 16200 M⁻¹ s⁻¹
- IC50 [24]: 45 nM
B2: VH 1.1 (VHH)
VHH: EVQLVESGGGVVRPGGSLRLSCSASGFTFDDYGMSWVRQAPGKGLEWVSGIHWNGGNSGYADSVKGRFTISRDNAKNSLYLQMNSLRAEDTALYYCARIPREDCSSASCYTDAIDFWGPGTMVTVSS
notes: Human VH single domain antibody (Humabody) against LAG-3; also called VH single domain antibody 1.1; monovalent LAG-3 VH 1.1
